US20250230251A1 (Bristol-Myers Squibb, published 2025)
One block for each binder: values may come before it.

Experiments:
huIL-18Rβ-HisAvi [1] = biological target: T1, huIL-18Rβ-HisAvi (human, UniProt O95256 20-356, biotinylated in the Octet blocking assay); experiment: SPR Biacore T200, mAb captured on anti-human Fc, huIL-18Rβ-HisAvi as analyte, PBST pH 5.5, 37 °C, 1:1 Binding fit
T1 construct: Soluble analyte in all SPR runs; captured on streptavidin sensors in the Octet assay; also called human IL-18Rβ; human IL-18Rβ-Avi-His
T1 sequence: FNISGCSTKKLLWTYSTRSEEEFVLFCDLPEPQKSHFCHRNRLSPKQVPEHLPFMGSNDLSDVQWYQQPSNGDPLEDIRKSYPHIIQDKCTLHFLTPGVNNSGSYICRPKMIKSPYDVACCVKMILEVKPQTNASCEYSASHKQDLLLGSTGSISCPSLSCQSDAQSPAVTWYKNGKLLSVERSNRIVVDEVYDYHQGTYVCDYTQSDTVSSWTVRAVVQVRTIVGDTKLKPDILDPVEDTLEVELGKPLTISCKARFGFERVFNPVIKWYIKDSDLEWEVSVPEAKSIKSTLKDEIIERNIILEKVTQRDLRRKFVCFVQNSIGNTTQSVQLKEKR

huIL-18Rβ-HisAvi [2] = biological target: T1, huIL-18Rβ-HisAvi; experiment: SPR T200, mAb on anti-hFc, 37C, pH 7.4; pH 7.4
huIL-18Rβ-HisAvi [3] = biological target: T1, huIL-18Rβ-HisAvi; experiment: SPR Biacore T200, mAb captured on anti-human Fc, huIL-18Rβ-HisAvi as analyte, PBST pH 6.0, 37 °C, 1:1 Binding fit
human IL-18Rβ on cells = biological target: T2, human IL-18Rβ on cells (human, UniProt O95256 20-599); experiment: cell-based or functional assay
T2 sequence: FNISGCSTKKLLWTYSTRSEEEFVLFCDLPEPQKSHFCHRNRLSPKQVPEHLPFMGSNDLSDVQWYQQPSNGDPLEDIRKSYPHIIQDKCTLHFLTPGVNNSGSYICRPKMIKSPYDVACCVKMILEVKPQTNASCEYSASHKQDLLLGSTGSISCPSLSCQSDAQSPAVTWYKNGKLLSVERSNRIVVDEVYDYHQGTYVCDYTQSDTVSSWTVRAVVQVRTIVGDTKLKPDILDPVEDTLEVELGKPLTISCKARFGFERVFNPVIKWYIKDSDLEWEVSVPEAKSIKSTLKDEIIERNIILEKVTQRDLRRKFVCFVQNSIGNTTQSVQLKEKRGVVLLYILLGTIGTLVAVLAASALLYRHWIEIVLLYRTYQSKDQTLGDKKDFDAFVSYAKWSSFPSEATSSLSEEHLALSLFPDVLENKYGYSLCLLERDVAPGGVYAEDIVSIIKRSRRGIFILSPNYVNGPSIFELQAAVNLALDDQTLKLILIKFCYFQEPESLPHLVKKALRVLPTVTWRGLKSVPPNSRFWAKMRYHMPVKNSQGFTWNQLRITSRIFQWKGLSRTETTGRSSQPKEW

huIL-18Rβ-HisAvi [4] = biological target: T1, huIL-18Rβ-HisAvi; experiment: SPR T200, pH 7; sample 4 w 4C

apparent Kd (pooled screen) (huIL-18Rβ-HisAvi [1]): 2.56 nM
apparent koff (pooled screen) (huIL-18Rβ-HisAvi [1]): 0.000282 s⁻¹
apparent kon (pooled screen) (huIL-18Rβ-HisAvi [1]): 110000 M⁻¹ s⁻¹
apparent kon (pooled screen) (huIL-18Rβ-HisAvi [2]): 330000 M⁻¹ s⁻¹
apparent Kd (pooled screen) (huIL-18Rβ-HisAvi [3]): 2.35 nM
apparent koff (pooled screen) (huIL-18Rβ-HisAvi [3]): 0.000329 s⁻¹
apparent kon (pooled screen) (huIL-18Rβ-HisAvi [3]): 140000 M⁻¹ s⁻¹
B1: P20 (antibody, human IgG1, kappa)
heavy: QVQLQQSGPGLVKPSETLSLTCTVSGGSINNYYWSWIRQPPGKGLEWIGYIFYSGTTNYNPSLKSRVTISVDTSKNQFSLKLSSVTAADTAVYYCARDVGIAARNSYYYVMDVWGQGTTVTVSSASTKGPSVFPLAPSSKSTSGGTAALGCLVKDYFPEPVTVSWNSGALTSGVHTFPAVLQSSGLYSLSSVVTVPSSSLGTQTYICNVNHKPSNTKVDKRVEPKSCDKTHTCPPCPAPEAEGAPSVFLFPPKPKDTLMISRTPEVTCVVVDVSHEDPEVKFNWYVDGVEVHNAKTKPREEQYNSTYRVVSVLTVLHQDWLNGKEYKCKVSNKALPAPIEKTISKAKGQPREPQVYTLPPSREEMTKNQVSLTCLVKGFYPSDIAVEWESNGQPENNYKTTPPVLDSDGSFFLYSKLTVDKSRWQQGNVFSCSVMHEALHNHYTQKSLSLSPG
light: AIQLTQSPSSLSASVGDRVTITCRASQGISSALAWYQQKPGKAPKFLIYDASSLESGVPSRFSGSGSGTDFTLTISSLQPEDFATYYCQQFNSYPITFGQGTRLEIKRTVAAPSVFIFPPSDEQLKSGTASVVCLLNNFYPREAKVQWKVDNALQSGNSQESVTEQDSKDSTYSLSSTLTLSKADYEKHKVYACEVTHQGLSSPVTKSFNRGEC
notes: Human IgG

Average IC50, IFNg, Crohn's disease LPLs, IL-18+IL-12 (human IL-18Rβ on cells): 18.3 nM
Average IC50, IFNg, healthy (non-IBD) LPLs, IL-18+IL-12 (human IL-18Rβ on cells): 39.8 nM
IC50, IFNg, Crohn's disease LPLs, IL-18+IL-12, replicate 1 (human IL-18Rβ on cells): 3.82 nM
IC50, IFNg, Crohn's disease LPLs, IL-18+IL-12, replicate 2 (human IL-18Rβ on cells): 15.4 nM
IC50, IFNg, Crohn's disease LPLs, IL-18+IL-12, replicate 3 (human IL-18Rβ on cells): 89.9 nM
IC50, IFNg, Crohn's disease LPLs, IL-18+IL-12, replicate 4 (human IL-18Rβ on cells): 9.47 nM
IC50, IFNg, Crohn's disease LPLs, IL-18+IL-12, replicate 5 (human IL-18Rβ on cells): 19.6 nM
IC50, IFNg, Crohn's disease LPLs, IL-18+IL-12, replicate 6 (human IL-18Rβ on cells): 5.68 nM
IC50, IFNg, Crohn's disease LPLs, IL-18+IL-12, replicate 7 (human IL-18Rβ on cells): 0.9 nM
IC50, IFNg, Crohn's disease LPLs, IL-18+IL-12, replicate 8 (human IL-18Rβ on cells): 1.33 nM
IC50, IFNg, healthy (non-IBD) LPLs, IL-18+IL-12, replicate 1 (human IL-18Rβ on cells): 12.8 nM
IC50, IFNg, healthy (non-IBD) LPLs, IL-18+IL-12, replicate 2 (human IL-18Rβ on cells): 9.57 nM
IC50, IFNg, healthy (non-IBD) LPLs, IL-18+IL-12, replicate 3 (human IL-18Rβ on cells): 44.8 nM
IC50, IFNg, healthy (non-IBD) LPLs, IL-18+IL-12, replicate 4 (human IL-18Rβ on cells): 132 nM
IC50, IFNg, healthy (non-IBD) LPLs, IL-18+IL-12, replicate 5 (human IL-18Rβ on cells): 0.0116 nM
Kd (huIL-18Rβ-HisAvi [4]): 0.2 nM
koff (huIL-18Rβ-HisAvi [4]): 5.7e-05 s⁻¹
kon (huIL-18Rβ-HisAvi [4]): 280000 M⁻¹ s⁻¹
B2: P20-V1 (antibody, human IgG1, kappa, V domains shown)
VH: QVQLQESGPGLVKPSETLSLTCTVSGGSINNYYWSWIRQPPGKGLEWIGYIFYSGTTNYNPSLKSRVTISVDTSKNQFSLKLSSVTAADTAVYYCARDVGIAARNSYYYVMDVWGQGTTVTVSS
VL: AIQLTQSPSSLSASVGDRVTITCRASQGISSALAWYQQKPGKAPKFLIYEASSLESGVPSRFSGSGSGTDFTLTISSLQPEDFATYYCQQFNSYPITFGQGTRLEIKR
notes: Variant of P20
Average IC50, IFNg, ulcerative colitis LPLs, IL-18+IL-12 (human IL-18Rβ on cells): 16.5 nM
IC50, IFNg, ulcerative colitis LPLs, IL-18+IL-12, replicate 1 (human IL-18Rβ on cells): 34.4 nM
IC50, IFNg, ulcerative colitis LPLs, IL-18+IL-12, replicate 2 (human IL-18Rβ on cells): 10.8 nM
IC50, IFNg, ulcerative colitis LPLs, IL-18+IL-12, replicate 3 (human IL-18Rβ on cells): 10.3 nM
IC50, IFNg, ulcerative colitis LPLs, IL-18+IL-12, replicate 4 (human IL-18Rβ on cells): 2.63 nM
IC50, IFNg, ulcerative colitis LPLs, IL-18+IL-12, replicate 5 (human IL-18Rβ on cells): 0.0024 nM
IC50, IFNg, ulcerative colitis LPLs, IL-18+IL-12, replicate 6 (human IL-18Rβ on cells): 0.402 nM
IC50, IFNg, ulcerative colitis LPLs, IL-18+IL-12, replicate 7 (human IL-18Rβ on cells): 56.7 nM
